These results are taken from PMC11019291.

In the series the target is SARS-CoV-2 nucleocapsid protein (N protein) (SARS-CoV-2, UniProt P0DTC9). Briefly: SERS (surface-immobilized aptamer). The note with it: protein: recombinant; tags: C-terminal His6 (pET26); N-terminal PelB signal and vector residues.

B1: anti-N DNA aptamer (ssDNA)
DNA: AAAAACGCGCGTATTCCTTAGGGGCACCGCTACACGCGCG
modifications: 5'-thiol
Turning to B1, the binding result is “binds”.
